From patent publication US20240368288A1 (HEMOGENYX PHARMACEUTICALS, published 2024)
Several values for one entry are separate records, joined by “and”; a condition that tells them apart may be missing. Equal entries are not always repeated.

Columns and labels:
[1] = target: T1, human FLT3 (Fms Related Receptor Tyrosine Kinase 3) expressed on cells (human, UniProt P36888 27-993); assay: cell-based or functional assay
T1 sequence (looked up): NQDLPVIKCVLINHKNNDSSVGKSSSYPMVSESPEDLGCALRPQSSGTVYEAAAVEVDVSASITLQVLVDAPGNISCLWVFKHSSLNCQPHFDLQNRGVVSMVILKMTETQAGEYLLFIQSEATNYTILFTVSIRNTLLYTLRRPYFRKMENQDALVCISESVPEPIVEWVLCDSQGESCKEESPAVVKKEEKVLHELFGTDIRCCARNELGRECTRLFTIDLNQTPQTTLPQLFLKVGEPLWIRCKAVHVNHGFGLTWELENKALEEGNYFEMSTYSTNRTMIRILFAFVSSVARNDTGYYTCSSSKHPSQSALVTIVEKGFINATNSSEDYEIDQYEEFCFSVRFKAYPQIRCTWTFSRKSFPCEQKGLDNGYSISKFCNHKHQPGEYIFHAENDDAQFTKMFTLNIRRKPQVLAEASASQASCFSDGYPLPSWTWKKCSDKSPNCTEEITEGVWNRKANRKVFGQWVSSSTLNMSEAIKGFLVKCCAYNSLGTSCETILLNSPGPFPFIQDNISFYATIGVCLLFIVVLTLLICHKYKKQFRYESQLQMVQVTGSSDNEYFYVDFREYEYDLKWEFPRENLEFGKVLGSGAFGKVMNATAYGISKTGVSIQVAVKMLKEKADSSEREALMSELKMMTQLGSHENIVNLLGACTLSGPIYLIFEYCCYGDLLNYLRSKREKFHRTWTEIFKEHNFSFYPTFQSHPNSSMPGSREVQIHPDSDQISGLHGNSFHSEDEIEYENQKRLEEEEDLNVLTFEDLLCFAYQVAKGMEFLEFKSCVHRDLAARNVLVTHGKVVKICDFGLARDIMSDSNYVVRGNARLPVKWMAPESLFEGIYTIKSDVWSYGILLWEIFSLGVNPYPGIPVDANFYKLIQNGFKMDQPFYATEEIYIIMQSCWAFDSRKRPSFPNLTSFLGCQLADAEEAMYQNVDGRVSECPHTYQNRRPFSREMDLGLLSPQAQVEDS

[2] = target: T1, human FLT3 (Fms Related Receptor …); assay: flow cytometry on FLT3+ REH cells
Excerpt: (§1) Cells were washed five times with flow buffer and stained with anti-human IgG lambda antibody conjugated to FITC (Southern Biotech 2070-02). Cells were stained with 7-AAD (7-AAD Viability Staining Solution, Biolegend 420404) followed by flow cytometry analysis.

[3] = target: T2, human CD3 on the surface of T cells / Jurkat cells (human, UniProt P07766 23-207; P09693 23-182; P04234 22-171); assay: flow cytometry on CD3+ Jurkat cells
T2 construct: whole, on cells
Excerpt: as §1

[4] = target: T1, human FLT3 (Fms Related Receptor …); assay: flow cytometry on FLT3+ HL-60 cells
Excerpt: as §1, with “analysis. […] Binding of bispecific antibody to cells should directly correlate with FLT3 expression.” for “analysis.”

[5] = target: T1, human FLT3 (Fms Related Receptor …); assay: flow cytometry on FLT3+ THP-1 cells
Excerpt: as §1, with “analysis. […] Binding of bispecific antibody to cells should directly correlate with FLT3 expression.” for “analysis.”

[6] = target: T2, human CD3 on the surface of T cells / …; assay: flow cytometry on CD3+ human T cells
Excerpt: as §1

[7] = target: T1, human FLT3 (Fms Related Receptor …); assay: flow cytometry on FLT3+ MV4-11 cells
Excerpt: as §1, with “analysis. […] Binding of bispecific antibody to cells should directly correlate with FLT3 expression.” for “analysis.”

[8] = target: T1, human FLT3 (Fms Related Receptor …); assay: flow cytometry on FLT3+ NOMO-1 cells
Excerpt: as §1, with “analysis. […] Binding of bispecific antibody to cells should directly correlate with FLT3 expression.” for “analysis.”

[9] = target: T1, human FLT3 (Fms Related Receptor …); assay: flow cytometry on FLT3+ MOLM-13 cells
Excerpt: as §1, with “analysis. […] Binding of bispecific antibody to cells should directly correlate with FLT3 expression.” for “analysis.”

[10] = target: T1, human FLT3 (Fms Related Receptor …); assay: flow cytometry on FLT3+ OCI-AML cells
Excerpt: as §1, with “analysis. […] Binding of bispecific antibody to cells should directly correlate with FLT3 expression.” for “analysis.”

[11] = target: T2, human CD3 on the surface of T cells / …; assay: flow cytometry on CD3+ primary T cells
Excerpt: as §1

[12] = target: T3, Recombinant Human CD3 epsilon Fc Chimera Protein (R&D, no. 9850-CD-050) (human, UniProt P07766 23-126); assay: ELISA, plate coated with recombinant human CD3 epsilon Fc chimera
T3 construct: Bought reagent; Fc part of the bought chimera not given
Experimental: The plate was washed with wash buffer (PBS (Caisson Labs, no. PBL06)+0.05% Tween20 (ThermoFisher, no. 28320)) The plate was blocked with blocking buffer (PBS (Caisson Labs, no. PBL06)+1% (w/v) BSA (Rockland, no. BSA-50)+0.05% Tween20 (ThermoFisher, no 28320)) for two hours at room temperature (RT). Plate was washed twice with wash buffer. […] Plate was washed 4× with wash buffer. Plate was incubated with 100 μL per well of 1:200 goat anti-human lambda-HRP secondary antibody (SouthernBiotech, no. 2070-05) for one hour at RT. Plate was washed 4× with wash buffer. Plate was incubated with 100 μL per well of TMB Substrate (ThermoFisher Cat #34029) for 20 minutes protected from light. Stop solution (2N H₂SO₄) was added to each well. Absorbance of wells was recorded at 450 nm on an Envision plate reader (PerkinElmer). […] Variable slope (four parameters) curve was fit to the data and EC50 was used to compare binding affinities.

T2 sequence (P07766 23-207, chain 1 of 3): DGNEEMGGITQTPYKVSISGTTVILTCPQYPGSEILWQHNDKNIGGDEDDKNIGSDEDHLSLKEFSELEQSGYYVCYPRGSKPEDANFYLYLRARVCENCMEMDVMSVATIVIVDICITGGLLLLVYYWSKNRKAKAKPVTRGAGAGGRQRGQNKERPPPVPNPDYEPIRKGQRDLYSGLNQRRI
T2 sequence (P09693 23-182, chain 2 of 3): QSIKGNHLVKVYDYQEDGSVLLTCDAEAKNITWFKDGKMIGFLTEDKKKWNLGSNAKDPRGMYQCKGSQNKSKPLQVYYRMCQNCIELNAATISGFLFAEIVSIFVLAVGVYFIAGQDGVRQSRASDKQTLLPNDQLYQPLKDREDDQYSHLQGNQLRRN
T2 sequence (P04234 22-171, chain 3 of 3): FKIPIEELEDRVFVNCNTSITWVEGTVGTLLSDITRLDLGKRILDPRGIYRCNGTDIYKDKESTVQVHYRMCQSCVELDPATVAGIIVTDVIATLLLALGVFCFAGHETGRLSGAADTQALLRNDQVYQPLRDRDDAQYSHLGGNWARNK
T3 sequence (P07766 23-126, change not shown): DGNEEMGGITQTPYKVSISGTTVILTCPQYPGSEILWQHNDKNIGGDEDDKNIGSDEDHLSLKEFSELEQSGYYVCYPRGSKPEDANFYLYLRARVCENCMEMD

B1: CD3xFLT3 bispecific antibody 118BA #3 (bispecific antibody, human IgG1, lambda)
heavy: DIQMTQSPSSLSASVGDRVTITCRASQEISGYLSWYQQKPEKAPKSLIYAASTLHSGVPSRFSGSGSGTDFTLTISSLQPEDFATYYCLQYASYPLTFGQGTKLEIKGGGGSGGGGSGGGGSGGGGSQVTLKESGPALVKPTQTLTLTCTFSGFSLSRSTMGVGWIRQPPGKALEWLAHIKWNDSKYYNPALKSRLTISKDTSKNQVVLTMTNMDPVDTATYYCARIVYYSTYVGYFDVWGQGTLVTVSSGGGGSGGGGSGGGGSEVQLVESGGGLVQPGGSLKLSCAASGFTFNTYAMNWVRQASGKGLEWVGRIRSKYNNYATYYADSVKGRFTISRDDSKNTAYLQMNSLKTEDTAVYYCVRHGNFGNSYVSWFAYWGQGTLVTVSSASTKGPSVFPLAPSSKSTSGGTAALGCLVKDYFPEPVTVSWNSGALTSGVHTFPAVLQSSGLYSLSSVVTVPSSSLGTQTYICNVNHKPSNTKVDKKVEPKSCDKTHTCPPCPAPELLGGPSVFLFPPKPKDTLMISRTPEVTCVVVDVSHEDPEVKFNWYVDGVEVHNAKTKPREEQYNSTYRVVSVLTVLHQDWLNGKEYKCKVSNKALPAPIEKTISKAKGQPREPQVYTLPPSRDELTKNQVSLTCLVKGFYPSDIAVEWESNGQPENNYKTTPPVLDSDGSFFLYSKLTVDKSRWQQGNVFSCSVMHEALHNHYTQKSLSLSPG
light: QAVVTQEPSFSVSPGGTVTLTCGSSTGAVTTSNYANWVQQTPGQAFRGLIGGTNKRSSGVPDRFSGSLLGDKAALTITGAQADDESDYYCALWYSNLWVFGGGTKLTVLGGQPKAAPSVTLFPPSSEELQANKATLVCLISDFYPGAVTVAWKADSSPVKAGVETTTPSKQSNNKYAASSYLSLTPEQWKSHRSYSCQVTHEGSTVEKTVAPTECS
notes: also called #3 WT
Q: B1 was tested. Which “EC50 of cytotoxicity against HL-60” value [1] did it give?
A: The value was 0.014 nM.

Q: What about the “EC50 of cytotoxicity against MOLM-13” value [1] of the same binder?
A: The value was 0.0157 nM.

Q: What about the “EC50 of cytotoxicity against MV4-11” value [1] of the same binder?
A: Its value is 0.022 nM.

Q: What about the “EC50 of cytotoxicity against NOMO-1” value [1] of the same binder?
A: The value was 3 pM.

Q: What about the “EC50 of cytotoxicity against OCI-AML” value [1] of the same binder?
A: The value was 2 pM.

Q: And the “EC50 of cytotoxicity against REH” value [1]?
A: Its value is 0.01 nM.

Q: And the “EC50 of cytotoxicity against REH cells” value [1]?
A: Its value is 10 pM and 6 pM.

Q: And the “EC50 of cytotoxicity against THP-1” value [1]?
A: Its value is 0.25 pM.

Q: And the EC50 [2]?
A: The EC50 was 0.5 nM and 0.87 nM and 0.6 nM.

Q: What about the EC50 [3] of the same binder?
A: Its EC50 is 4.18 nM.

Q: And the EC50 [4]?
A: The EC50 was 1.02 nM.

Q: And the EC50 [5]?
A: Its EC50 is 5.74 nM.

Q: What about the EC50 [6] of the same binder?
A: The EC50 was 13.8 nM.

Q: What about the EC50 [7] of the same binder?
A: Its EC50 is 6.33 nM.

Q: And the EC50 [8]?
A: Its EC50 is 6.75 nM.

Q: And the EC50 [9]?
A: Its EC50 is 0.4 nM.

Q: What about the EC50 [10] of the same binder?
A: The EC50 was 1.86 nM.

Q: What about the EC50 [11] of the same binder?
A: The EC50 was 14.2 nM.

Q: And the EC50 [12]?
A: The EC50 was 0.011 µg/mL and 0.06 nM.
